Read-outs that look alike come from different tables or passages of the source. Blank lines part the entries; values can stand above or below the molecule they belong to.
What was measured:
[1] = molecular target: SUMO E2 (Ubc9) (Homo sapiens) (UniProt P63279); assay: NMR; conditions: cited from earlier work
[2] = molecular target: SUMO E2 (Ubc9) (Homo sapiens) (UniProt P63279); conditions: cited from earlier work
[3] = molecular target: T1, human SUMO E2 conjugating enzyme Ubc9, full length (human, UniProt P63279 1-158, lysines methylated (borane-dimethylamine complex and formaldehyde), only in the complex that was crystallised); assay: native gel or EMSA; native gel electrophoresis of human E1 UFD domain with Ubc9 (Supplementary Fig. S1); conditions: both partners purified
T1 construct: SUMO-conjugating enzyme Ubc9, human, full length; Cloned in pET28a; the His tag was removed with thrombin, so a few residues of the vector may remain at the N-terminus; The complex with the UFD was lysine-methylated after gel filtration and only then crystallised; also called hSUMO Ubc9; source: E. coli BL21(DE3) pLysS, purified (Ni-NTA, thrombin, Superdex75 gel filtration); not shown: His6, …
T1 sequence (P63279 whole entry, the tested form may be a part): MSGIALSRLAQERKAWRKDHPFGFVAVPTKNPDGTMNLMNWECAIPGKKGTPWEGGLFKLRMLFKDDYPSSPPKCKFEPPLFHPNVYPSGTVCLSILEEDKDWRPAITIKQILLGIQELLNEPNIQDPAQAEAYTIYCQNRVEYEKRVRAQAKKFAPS

Chain of SUMO E2 (Ubc9) (Homo sapiens) (P63279 2-158): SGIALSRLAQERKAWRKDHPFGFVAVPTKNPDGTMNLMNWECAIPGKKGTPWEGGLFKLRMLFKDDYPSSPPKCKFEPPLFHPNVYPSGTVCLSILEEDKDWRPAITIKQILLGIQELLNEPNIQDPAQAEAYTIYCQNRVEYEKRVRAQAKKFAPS

Molecule: SUMO E1 Cys domain Cys domain (from UniProt Q9UBT2)
Kd [1]: 87 µM

Molecule: SUMO E1 UFD UFD (from UniProt Q9UBT2)
Kd [2]: 1.2 µM

binding result [3]: binds
B1: human SUMO E1 Uba2 ubiquitin-fold domain (UFD), residues 447-547 (domain or fragment, UniProt Q9UBT2 447-547, looked up)
chain: KPEVTVRLNVHKVTVLTLQDKIVKEKFAMVAPDVQIEDGKGTILISSEEGETEANNHKKLSEFGIRNGSRLQADDFLQDYTLLINILHSEDLGKDVEFEVV
modifications: lysines methylated (borane-dimethylamine complex and formaldehyde), only in the complex that was crystallised
notes: designed from the structure of full-length human SAE1-SAE2 (PDB 1Y8Q); Cloned in pET28a; the His tag was removed with thrombin, so a few residues of the vector may remain at the N-terminus; The complex with Ubc9 was lysine-methylated after gel filtration and only then crystallised; the native gel and the gel filtration used the unmethylated protein; also called E1 UFD domain; HsUba2 UFD; source: …
